# Measurements as given in the supplement of paper PMC10567573.
# ± gives the standard deviation.
# Assay: protein stability index of a GFP-peptide fusion (GPS, HEK-293T) (PSI 1-6); higher = more stable
# Conditions: c terminus: a fixed tail appended
# 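Further: 24-mer peptide tiles fused after GFP, lentivirally expressed, FACS-sorted into six equal bins by GFP/DsRed ratio, decoded by Illumina sequencing, PSI is the read-weighted mean bin number.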
Sequence,protein stability index (treatment: DMSO),"protein stability index (treatment: MLN4924 1 uM, 8 h)"
LEEVNDEGYTPLMEAAREGHEEMV [ANKRD17],5.49 ± 0.08,5.52 ± 0.23
LEEYITDEQKEEEEEEGEEEELIR [FAM9B],5.37 ± 0.15,5.59 ± 0.33
LEGYISNLRKQLETLSGDRVRLDS [KRT71],3.17 ± 0.4,3.26 ± 0.35
LEMCVDARTFGNEARFIRRSCTPN [KMT2E],3.19 ± 0.21,3.13 ± 0.16
LENVLDPDSFYELKSQPLPLRSSL [TFE3],3.4 ± 0.27,3.49 ± 0.21
LEPAQRPPLSHIMAQPLCIRALLN [NEK8],3.35 ± 0.21,3.48 ± 0.16
LEPGSADPLANGCQGVSEAAHRLA [PSD2],5.22 ± 0.075,5.23 ± 0.24
LETEQGKPFVSVFRHLRLQYIISD [GMCL1],2.21 ± 0.56,2.05 ± 0.33
LFGFSAVSIMYLVLVLAVQVHAWQ [JAGN1],3.8 ± 0.15,2.97 ± 0.39
LFRKDVDDATLSRLELERKIESLM [PRPH],3.06 ± 0.22,3.33 ± 0.29
LFYSAEVEMLCDQAWGSMLEVPAG [CCDC3],1.92 ± 0.53,2.26 ± 0.41
LGCQGAQFVSSVPRCDLVDLGEGK [FAM189A2],4.31 ± 0.14,4.18 ± 0.13
LGIGMDSCVIPLRHGGLSLVQTTD [SEPHS2],2.8 ± 0.33,2.98 ± 0.4
LGLGSMIGTMAGITTPIIDTFKVP [SLC6A17],2.55 ± 0.12,2.51 ± 0.31
LGPLGSTAFLPDSKCLVDDGTGRM [GALNT9],3.89 ± 0.36,4.24 ± 0.21
LGPRDAGTRGRLESAQATFQAHRD [ARFIP2],4.62 ± 0.35,4.67 ± 0.27
LGSDYEQPLEVKNNSNLQRMGSSE [CDC25A],5.01 ± 0.19,4.94 ± 0.57
LGSQIKSLCNLEESITSAGRDDLE [FAM98B],4.63 ± 0.3,4.74 ± 0.17
LHGKAIKVEQAKKPSFQSGGRRRP [RBMY1A1],3.89 ± 0.2,4.21 ± 0.16
LHRLKFLGFARRNWGNGKRPNLET [GDAP1],2.22 ± 0.32,2.44 ± 0.45
LHVNGESLEMDSDEDDSEELEEDD [EHMT1],5.41 ± 0.26,5.28 ± 0.12
LIKEGGMPLLRDIIKMATARQETK [ZER1],2.69 ± 0.32,2.65 ± 0.38

Sequence,protein stability index (treatment: DMSO),"protein stability index (treatment: MLN4924 1 uM, 8 h)"
LIKKKKEELEAKRLQCPFEQELLR [FAM107A],3.66 ± 0.12,3.71 ± 0.15
LIYTLKNAEMKSAMRKLWSKKVSL [OR4A15],2.41 ± 0.97,2.04 ± 0.12
LIYVVIDLPINVFKLLAGRWPFDH [EDNRA],2.27 ± 1,3.04 ± 0.23
LKAIIFFDPDAKGLSDPGKIKRLR [HNF4A],2.45 ± 0.33,2.37 ± 0.12
LKDDIYIRYQSFNNQSDLEKEMQK [PRIM1],4.41 ± 0.08,4.27 ± 0.26
LKEGMLMKIKQDRASRTYELQNQL [FSD1],3.05 ± 0.35,3.39 ± 0.19
LKEPLHKALQMLLSQPVTYQAFRE [BCL2L13],2.76 ± 0.085,2.77 ± 0.4
LKHPNIVRLHDSISEEGHHYLIFD [CAMK2A],2.58 ± 0.32,2.79 ± 0.25
LKSELGRKWHKASNYIFVAIFWIV [P2RY14],2.24 ± 0.61,2.31 ± 0.19
LKTSRKDVKDKETTENENTKFEVR [CHGB],5.03 ± 0.11,5.22 ± 0.092
LLELQSQQACTHTKETEQLRSQLQ [CCDC89],4.06 ± 0.32,4.29 ± 0.25
LLGAVNFFVSSINTLVTKTMEDTL [ARFIP2],3.13 ± 0.21,3.07 ± 0.26
LLLLLPTLQSITWQMIEQIQFIKL [HNF4A],3.58 ± 0.39,3.28 ± 0.28
LLMTADILAETGIRKTVKRLRKHQ [ELOA2],2.41 ± 0.31,2.84 ± 0.25
LLPMLDALRFTADVRSVLSRNLHQ [CTDNEP1],2.5 ± 0.37,2.1 ± 0.21
LLQRRKRENMSDGDTSATESGDEV [KMT2E],5.52 ± 0.17,5.32 ± 0.38
LLQTQHALGDAFADLSQKSPELQE [ARFIP2],4.7 ± 0.22,4.77 ± 0.21
LLSRFSVGIFHLMQIAVPCAFLLL [TMEM175],2.6 ± 0.35,2.24 ± 0.25
LLTNNSGTPKDHDSPENGADSFES [ETS2],5.2 ± 0.26,5.22 ± 0.12
LLVQFVCQEYLARNARIVHLVEET [CPXM2],3.82 ± 0.26,2.63 ± 0.95
LMTSKPAEVVKILQTMLRQSAFLH [INTS4],2.78 ± 0.41,2.43 ± 0.29
LNEDPLKWWSDRLALFPLLPKVLQ [ZBED1],2.2 ± 0.25,2.16 ± 0.1
